We go through 1 molecule from patent CN105524171A (UNIV PLA 3RD MILITARY MEDICAL, dated 2016).

Assay [1] concerns the target T1, 前列腺特异性膜抗原 (PSMA) on LNCaP cells (UniProt Q04609 1-750, limits assumed).
T1 construct: whole, on cells; Cells were fixed with 4% paraformaldehyde before the assay; also called prostate specific membrane antigen
Put plainly: cell ELISA (HRP-anti-M13, OD450) and immunofluorescence on fixed LNCaP cells (PSMA+) against MKN45 cells (PSMA-).

The target of assay [2] is T2, PSMA胞外区蛋白 (重组表达的前列腺特异性膜抗原膜外区) (UniProt Q04609 44-750).
T2 construct: extracellular domain; also called PSMA蛋白; PSMA抗原; not shown: His tag from vector pRAG2a (HisTrap purification, detected with His antibody)
T2 sequence (Q04609 44-750): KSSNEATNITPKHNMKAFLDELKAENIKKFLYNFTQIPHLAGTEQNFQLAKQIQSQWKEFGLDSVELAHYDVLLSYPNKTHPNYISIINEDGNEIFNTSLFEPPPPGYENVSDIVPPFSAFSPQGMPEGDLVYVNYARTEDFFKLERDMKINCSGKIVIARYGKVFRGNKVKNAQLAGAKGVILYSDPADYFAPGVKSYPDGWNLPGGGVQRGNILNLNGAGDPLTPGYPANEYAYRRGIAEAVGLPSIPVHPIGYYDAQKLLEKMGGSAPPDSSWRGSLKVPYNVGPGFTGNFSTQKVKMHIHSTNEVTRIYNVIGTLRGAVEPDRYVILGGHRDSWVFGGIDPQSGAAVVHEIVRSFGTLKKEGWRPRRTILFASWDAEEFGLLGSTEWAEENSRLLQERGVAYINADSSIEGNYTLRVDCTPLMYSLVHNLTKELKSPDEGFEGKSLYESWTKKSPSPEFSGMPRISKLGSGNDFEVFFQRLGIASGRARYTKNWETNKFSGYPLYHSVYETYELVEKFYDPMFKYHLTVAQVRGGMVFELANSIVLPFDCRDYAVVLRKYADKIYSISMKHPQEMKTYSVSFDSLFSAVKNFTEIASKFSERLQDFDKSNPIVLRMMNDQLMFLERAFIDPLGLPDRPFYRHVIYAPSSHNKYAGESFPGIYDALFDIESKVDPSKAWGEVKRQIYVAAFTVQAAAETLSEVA
Put plainly: indirect phage ELISA, PSMA extracellular domain coated at 5 μg/mL, HRP-anti-M13 detection.

T1 sequence (Q04609 whole entry): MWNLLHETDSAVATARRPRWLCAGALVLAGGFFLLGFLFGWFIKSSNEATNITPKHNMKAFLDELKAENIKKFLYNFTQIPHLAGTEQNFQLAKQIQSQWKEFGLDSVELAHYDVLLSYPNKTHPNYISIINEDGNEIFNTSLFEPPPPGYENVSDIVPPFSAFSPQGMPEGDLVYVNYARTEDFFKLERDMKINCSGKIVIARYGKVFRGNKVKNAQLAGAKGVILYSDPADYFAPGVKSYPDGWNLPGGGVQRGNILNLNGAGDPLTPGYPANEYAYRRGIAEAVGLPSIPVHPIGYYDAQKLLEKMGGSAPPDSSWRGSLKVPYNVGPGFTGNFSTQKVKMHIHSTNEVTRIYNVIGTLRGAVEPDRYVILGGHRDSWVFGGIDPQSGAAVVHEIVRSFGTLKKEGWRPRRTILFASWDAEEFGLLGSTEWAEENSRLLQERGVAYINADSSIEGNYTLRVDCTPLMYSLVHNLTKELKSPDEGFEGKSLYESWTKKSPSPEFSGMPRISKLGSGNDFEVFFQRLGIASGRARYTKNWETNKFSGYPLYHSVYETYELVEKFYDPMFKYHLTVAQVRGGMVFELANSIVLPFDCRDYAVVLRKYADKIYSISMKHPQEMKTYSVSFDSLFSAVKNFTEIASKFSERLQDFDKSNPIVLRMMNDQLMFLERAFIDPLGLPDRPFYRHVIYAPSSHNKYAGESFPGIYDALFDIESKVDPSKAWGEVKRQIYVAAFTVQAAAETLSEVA

B1: 抗前列腺特异性膜抗原单域重链抗体噬菌体阳性克隆 (VHH, not shown: large carriers)
VHH: QLQLVESGGGLVQAGGSLRLSCVVSGRPFSRYTMGWFRQAPGKERELVATIWRRGNTYYANYADAVTGRFTISRDNAKNTAYLQMNSLELEDTAIYYCAAGRTSWGQNPSEYGYWGQGTQVTVSS
notes: also called 针对前列腺特异性膜抗原的单域重链抗体阳性克隆; 展示本发明所述纳米抗体的噬菌体克隆
In the case of B1, the binding result in assay [1] and in assay [2] was “binds” in each case.
